Laboratory results published in patent publication US20230243070A1 (Molecular Partners, published 2023).
Numbering of substitutions follows the chain as printed.

B1: DARPin® protein #25 (designed binder)
chain: MRGSHHHHHHGSDLGNKLLSAAIRGQDDEVRILLAAGADVNAKDIHGHTPLHAAAQFGHLEIVEVLLKAGADVNAKDFYGLTPLHLAAIFGHLEIVEVLLKAGADVNAQDEEGKTPADLAAVIGHEDIAEVLQKAA
B2: DARPin® protein #32 (designed binder)
chain: MRGSHHHHHHGSDLGKKLLQAARAGQLDEVRELLKAGADVNAKDYFGSTPLHLAQLGHLEIVEVLLKAGADVNAKDYQGHTPLHVDAFHGHLEIVEVLLKAGADVNAKDQWGVTPLHLAAEWGHLEIVEVLLKAGADVNAQDKSGKTPADLAARAGHQDIAEVLQKAA
B3: DARPin® protein #24 (designed binder)
chain: MRGSHHHHHHGSDLGEKLLYAAFYGQDDEVRILLTAGADVNAKDKYGLTPLHRAATHGHLEIVEVLLKAGADVNAKDEWGTTPLHIAAIFGHLEIVEVLLKAGADVNAQDEQGNTPADLAAVIGHEDIAEVLQKAA
B4: DARPin® protein #23 (designed binder)
chain: MRGSHHHHHHGSDLGIKLLYAANSGQDDEVRILLAAGADVNAKDEYGDTPLHKAAEYGHLEIVEVLLKAGADVNAKDVYGITPLHLAAIFGHLEIVEVLLKAGADVNAQDKKGHTPADLAAFVGHEDIAEVLQKAA
B5: DARPin® protein #30 (designed binder)
chain: MRGSHHHHHHGSDLGKKLLQAARAGQLDEVRELLKAGADVNAKDRFGIPLHIAASQGHLEIVEVLLKAGADVNAKDHWGETPLHLAAVFGHLEIVEVLLKAGADVNAKDHTGQTPLHLAAYLGHLEIVEVLLKAGADVNAQDKSGKTPADLAARAGHQDIAEVLQKAA
B6: DARPin® protein #29 (designed binder)
chain: MRGSHHHHHHGSDLGKKLLQAARAGQLDEVRELLKAGADVNAKDRAGSTPLHLAAFRGHLEIVEVLLKAGADVNAKDAAGYTPLHLAALYGHLEIVEVLLKAGADVNAKDHAGSTPLHLAALAGHLEIVEVLLKAGADVNAQDKSGKTPADLAARAGHQDIAEVLQKAA
B7: DARPin® protein #33 (designed binder)
chain: MRGSHHHHHHGSDLGKKLLQAARAGQLDEVRELLKAGADVNAKDAIGQTPLHLAAFRGHLEIVEVLLKAGADVNAKDVAGWTPLHIAAAYGHLEIVEVLLKAGADVNAKDAYGQTPLHLAAFQGHLEIVEVLLKAGADVNAQDKSGKTPADLAARAGHQDIAEVLQKAA
B8: DARPin® protein #31 (designed binder)
chain: MRGSHHHHHHGSDLGKKLLQAARAGQLDEVRELLKAGADVNAKDATGQTPLHVAAFRGHLEIVEVLLKAGADVNAKDKAGYTPLHIAAYAGHLEIVEVLLKAGADVNAKDHAGWTPLHLAAILGHLEIVEVLLKAGADVNAQDKSGKTPADLAARAGHQDIAEVLQKAA
B9: SEQ ID NO 100 (designed binder)
chain: GSDLGSKLLQAAAVGQDDEVRILLAAGADVNAKDDFGETPLHLAAWHGHLEIVEVLLKAGADVNAKDEQGFTPLHWAALTGHLEIVEVLLKAGADVNAQDKQGITPADLAANAGHEDIAEVLQKAA
B10: SEQ ID NO 97 (designed binder)
chain: GSDLGKKLLQAARAGQLDEVRELLKADADVNAKDTWGYTPLHLAAFHGHLEIVEVLLKAGADVNAKDELGKTPLHLAAYVGPLEIVEVLLKAGADVNAKDQHGYTPLHIAAAYGHLEIVEVLLKAGADVNAQDKSGKTPADLAARAGHQDIAEVLQKAA
B11: SEQ ID NO 105 (designed binder)
chain: GSDLGKKLLQAARAGQLDEVRELLKAGADVNAKDQEGRTPLHIAAAHGHLEIVEVLLKAGADVNAKDAYGYTPLHLAAFIGHLEIVEVLLKAGAEVNAKDKYGETPLHIAALTGHLEIVEVLLKAGADVNAQDKSGKTPADLAARAGHQDIAEVLQKAA
B12: SEQ ID NO 95 (designed binder)
chain: GSDLGQKLLRAAQAGQDDEVRELLKAGADVNAKDEVGWTPLHLAAAWGHLEIVEVLLKAGADVNAKDHFGITPLHVAAELGHLEIVEVLLKAGADVNAQDLAGRAPADLAALEGHEDIAEVLQKAA
B13: SEQ ID NO 101 (designed binder)
chain: GSDLGEKLLAAALVGQDDEVRILLAVGADVNAKDVAGRTPLHRAALAGHLEIVEVLLKAGADVNAKDQSGFTPLHLAAVDGHLEIVEVLLKAGADVNAQDEIGATPADLAARIGHEDIAEVLQKAA
B14: SEQ ID NO 94 (designed binder)
chain: GSDLGQKLLEAARKGQDDEVRELLKAGADVNAKDKAGWTPLHLAAYFGHLEIVEVLLKAGADVNAKDVIGWTPLHLAAWQGHLEIVEVLLKAGADVNAQDLKGQTPADLAAQEGNEDIAEVLQKAA
B15: SEQ ID NO 99 (designed binder)
chain: GSDLGAKLLFAAILGQDDEVRILLAAGADVNAKDETGHTPLHHAAHYGHLEIVEVLLKAGADVNAKDQYGFTPLHLAAYYGHLEIVEVLLKAGADVNAQDDDGITPADLAAAHGHEDIAEVLQKAA
B16: SEQ ID NO 93 (designed binder)
chain: GSDLGTKLLFAATLGQDDEVRILLAAGADVNAKDTIGRTPLHVAAHYGHLEIVEVLLKAGADVNAKDIYGFTPLHLAAYFGHLEIVEVLLKAGADVNAQDKTGKTPADLAAVIGHEDIAEVLQKAA
B17: SEQ ID NO 96 (designed binder)
chain: GSDLGKKLLQAARAGQLDEVRELLKAGADVNAKDLTGITPLHIAAREGHLEIVEVLLKAGADVNAKDAWGFTPLHVAAWTGHLEIVEVLLKAGADVNAKDLLGETPLHLAAEAGHLEIVEVLLKAGADVNAQDKSGKTPADLAARAGHQDIAEVLQKAA
B18: SEQ ID NO 106 (designed binder)
chain: GSDLGKKLLQAARAGQLDEVRELLKAGADVNAKDLAGVTPLHVAARAGHLEIVEVLLKAGADVNAKDAWGFTPLHIAAYQGHLEIVEVLLKAGADVNAKDLLGSTPLHVAAETGHLEIVEVLLKAGADVNAQDKSGKTPADLAARAGHLDIAEVLQKAA
B19: SEQ ID NO 109 (designed binder)
chain: GSDLGKKLLQAARAGQLDEVRELLKAGADVNAKDLSGVTPLHIAARSGHLEIVEVLLKAGADVNAKDAWGYTPLHVAAEHGHLEIVEVLLKAGADVNAKDHLGSTPLHIAASHGHLEIVEVLLKAGADVNAQDKSGKTPADLAARAGHQDIAEVLQKAA
B20: SEQ ID NO 108 (designed binder)
chain: GSDLGKKLLQAARAGQLDEVRELLKAGADVNAKDQTGWTPLHIAAHTGHLEIVEVLLKAGADVNAKDAVGFTPLHVAAWSGHLEIVEVLLKDGADVNAKDTSGATPLHLAAEWGHLEIVEVLLKAGADVNAQDKSGKTPADLAARAGHQDIAEVLQKAA
B21: SEQ ID NO 107 (designed binder)
chain: B17 chain with I43V, E47S, L50P, W79Y, T80K, L101Q, E112A, A113E
B22: SEQ ID NO 102 (designed binder)
chain: GSDLGHKLLIAAYLGQDDEVRILLAAGADVNAKDDFGITPLHVAAQVGHLEIVEVLLKAGADVNAKDKSGLTPLHLAAYYGHLEIVEDLLKAGADVNAQDYSGETPADLAASLGHEDIAEVLQKAA
B23: SEQ ID NO 98 (designed binder)
chain: GSDLGDKLLFAAELGQDDEVRILLAAGADVNAKDSFGQTPLHRVAANHGHLEIVEVLLKAGADVNAKDSSGHTPLHVAALTGHLEIVEVLLKAGADVNAQDESGFTPADLAADVGHEDIAEVLQKAA
B24: SEQ ID NO 104 (designed binder)
chain: GSDLGQKLLQAAQLGQDDEVRELLKAGADVNAKDTFGQTPLHPAAWSGHLEIVEVLLKAGADVNAKDKWGVTPLHLAAVSGHLEIVEVLLKAGADVNAQDLEGRTPADLAAKQGHEDIAEVLQKAA
B25: SEQ ID NO 110 (designed binder)
chain: GSDLGKKLLQAARAGQLDEVRELLKAGADVNAKDAAGWTPLHLAAAEGHLEIVEVLLKAGADVNAKDVVGQTPLHVAAVIGHLEIVEVLLKAGADVNAKDSAGYTPLHLAAREGHLEIVEVLLKAGADVNAQDKSGKTPADLAARAGHQDIAEVLQKAA
B26: SEQ ID NO 103 (designed binder)
chain: GSDLGNKLLWAAYQGQDDEVRILLAAGADVNAKDYLGWTPLHIAATSGHLEIVEVLLKAGADVNAKDWYGYTPLHLAAEWGHLEIVEVLLKAGADVNAQDKSGKTPADLAADSGHEDIAEVLQKAA

target: T1, NYESOpMHC (HLA-A*0201:NYESO1-9V), biotinylated recombinant complex (human); test: SPR (ProteOn), biotinylated pMHC on NLC chip, PBS with Tween
T1 construct: also called NY-ESO-1 peptide-MHC complex

Row | Binder | Kd [nM]
1 | B1 | 0.172
2 | B2 | 1.63
3 | B3 | 0.939
4 | B4 | 0.0939
5 | B5 | 2.33
6 | B6 | 0.635
7 | B7 | 0.108
8 | B8 | 1.32

target: T2, EBNApMHC (HLA-A*0201:EBNA-1), biotinylated recombinant complex (human; Epstein Barr virus); test: SPR (ProteOn), biotinylated pMHC on NLC chip

Row | Binder | binding result
9 | B1 | no binding (tested: 3.7 nM to 300 nM, or 250 nM single trace)
10 | B2 | no binding (tested: 3.7 nM to 300 nM, or 250 nM single trace)
11 | B3 | no binding (tested: 3.7 nM to 300 nM, or 250 nM single trace)
12 | B4 | no binding (tested: 3.7 nM to 300 nM, or 250 nM single trace)
13 | B5 | no binding (tested: 3.7 nM to 300 nM, or 250 nM single trace)
14 | B6 | no binding (tested: 3.7 nM to 300 nM, or 250 nM single trace)
15 | B7 | no binding (tested: 3.7 nM to 300 nM, or 250 nM single trace)
16 | B8 | no binding (tested: 3.7 nM to 300 nM, or 250 nM single trace)

target: NYESOAApMHC (HLA-A*0201:NYESO1-9VAA), biotinylated recombinant complex (human); test: SPR (ProteOn), biotinylated pMHC on NLC chip

Row | Binder | binding result
17 | B1 | no binding
18 | B2 | no binding
19 | B3 | no binding
20 | B4 | no binding
21 | B5 | no binding
22 | B6 | no binding
23 | B7 | no binding
24 | B8 | no binding

target: T2, EBNApMHC (HLA-A*0201:EBNA-1), …; test: ribosome display selection, crude extract HTRF

Row | Binder | binding result
25 | B9 | binds
26 | B10 | binds
27 | B11 | binds
28 | B12 | binds
29 | B13 | binds
30 | B14 | binds
31 | B15 | binds
32 | B16 | binds
33 | B17 | binds
34 | B18 | binds
35 | B19 | binds
36 | B20 | binds
37 | B21 | binds
38 | B22 | binds
39 | B23 | binds
40 | B24 | binds
41 | B25 | binds
42 | B26 | binds
